Consider 19 molecules from US20160031998A1 (CSL, published 2016).

Numbering of substitutions follows the chain as printed.

Sequences and labels used below:
T1: human G-CSFR expressed on cells (Homo sapiens, UniProt Q99062 25-836)
T1 sequence: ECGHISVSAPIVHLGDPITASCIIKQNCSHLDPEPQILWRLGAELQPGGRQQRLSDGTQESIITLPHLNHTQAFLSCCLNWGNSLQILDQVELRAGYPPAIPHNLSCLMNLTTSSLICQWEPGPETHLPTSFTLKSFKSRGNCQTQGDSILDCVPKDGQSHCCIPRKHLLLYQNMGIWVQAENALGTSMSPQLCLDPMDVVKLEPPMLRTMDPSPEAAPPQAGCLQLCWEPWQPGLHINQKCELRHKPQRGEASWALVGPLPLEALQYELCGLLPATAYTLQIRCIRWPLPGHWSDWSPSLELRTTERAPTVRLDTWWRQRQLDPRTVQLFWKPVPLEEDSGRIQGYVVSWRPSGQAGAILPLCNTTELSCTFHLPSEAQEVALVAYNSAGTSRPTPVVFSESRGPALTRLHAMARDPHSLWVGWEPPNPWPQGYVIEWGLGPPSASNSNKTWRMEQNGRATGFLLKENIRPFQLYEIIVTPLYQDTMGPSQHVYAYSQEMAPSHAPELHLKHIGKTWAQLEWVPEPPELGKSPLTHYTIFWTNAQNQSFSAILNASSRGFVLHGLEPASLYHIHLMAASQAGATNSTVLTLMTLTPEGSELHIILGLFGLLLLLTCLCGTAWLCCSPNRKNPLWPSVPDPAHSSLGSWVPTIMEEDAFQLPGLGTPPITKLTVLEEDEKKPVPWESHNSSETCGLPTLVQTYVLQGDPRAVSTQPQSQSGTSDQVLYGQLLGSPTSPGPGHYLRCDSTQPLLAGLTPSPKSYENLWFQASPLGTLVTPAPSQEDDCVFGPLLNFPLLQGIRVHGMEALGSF

T2: soluble hG-CSFR: amino acids 25-335 of Homo sapiens G-CSFR with mutations C78A, C163S and C228S and a … (Homo sapiens, UniProt Q99062 25-335)
T2 chain: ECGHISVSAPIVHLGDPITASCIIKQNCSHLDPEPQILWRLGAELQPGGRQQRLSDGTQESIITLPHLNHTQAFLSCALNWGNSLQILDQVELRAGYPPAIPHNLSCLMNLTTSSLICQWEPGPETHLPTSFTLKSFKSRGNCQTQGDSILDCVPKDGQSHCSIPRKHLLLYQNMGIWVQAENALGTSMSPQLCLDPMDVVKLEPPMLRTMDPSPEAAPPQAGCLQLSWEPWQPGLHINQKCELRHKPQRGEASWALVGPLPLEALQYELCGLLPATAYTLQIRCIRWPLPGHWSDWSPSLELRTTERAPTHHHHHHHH

B1: C1.2G-44 (antibody, human IgG4, V domains shown)
VH: EVQLLESGGGLVQPGGSLRLSCAASGFTFSLYWMGWVRQAPGKGLEWVSSISSSGGVTPYADSVKGRFTISRDNSKNTLYLQMNSLRAEDTAVYYCAKLGELGWFDPWGQGTLVTVSS
VL: DIQMTQSPSSLSASVGDRVTITCRASQGISSYLNWYQQKPGKAPKLLIYYASNLQNGVPSRFSGSGSGTDFTLTISSLQPEDFATYYCQQSYSYPQKFGGGTKVEIK
notes: HCDR3 wt (VH of C1.2G); also called antibody 44
B2: C1.2G-1000 (antibody, human IgG4, V domains shown)
VH: B1 VH with W104Q, F105M, D106M, P107Y
VL: B1 VL with Y92W, S93M, P95A, Q96H, K97M
notes: also called antibody 1000
B3: C1.2G-989 (antibody, human IgG4, V domains shown)
VH: B1 VH with W104Q, F105Y, D106M, P107F
VL: B1 VL with Y92F, S93Y, Q96F, K97Y
notes: also called antibody 989
B4: C1.2G-987 (antibody, human IgG4, V domains shown)
VH: B1 VH with W104Q, F105S, D106S, P107A
VL: B1 VL with Y92I, S93Q, K97M
notes: also called antibody 987
B5: C1.2G-994 (antibody, human IgG4, V domains shown)
VH: B1 VH with W104Q, D106M, P107D
VL: B1 VL with Y92L, S93E, K97M
notes: also called antibody 994
B6: C1.2G-969 (antibody, human IgG4, V domains shown)
VH: B1 VH with W104Q, F105Y, D106Q, P107F
VL: B1 VL with Y92F, S93Q, P95A, K97H
notes: also called antibody 969
B7: C1.2G-1002 (antibody, human IgG4, V domains shown)
VH: B1 VH with W104M, F105Y, D106M, P107N
VL: B1 VL with Y92W, S93T, P95G, K97T
notes: also called antibody 1002
B8: C1.2G-1003 (antibody, human IgG4, V domains shown)
VH: B1 VH with W104S, F105G, D106S, P107T
VL: B1 VL with Y92W, S93H, Q96L, K97T
notes: also called antibody 1003
B9: C1.2G-986 (antibody, human IgG4, V domains shown)
VH: B1 VH with W104F, D106Q, P107E
VL: B1 VL with S93A, K97Q
notes: also called antibody 986
B10: C1.2G-54 (antibody, human IgG4, V domains shown)
VH: B1 VH with W104M, D106L, P107E
VL: B1 VL with Y92M, S93W, Y94M, Q96M, K97G
notes: also called antibody 54
B11: C1.2G-967 (antibody, human IgG4, V domains shown)
VH: B1 VH with W104M, F105Y, P107L
VL: B1 VL with Y92W, S93A, P95G, Q96L, K97S
notes: also called antibody 967
B12: C1.2G-802 (antibody, human IgG4, V domains shown)
VH: B1 VH
VL: B1 VL with Q89H, Q90F, Y92M, S93Q, Q96L, K97T
notes: HCDR3 wt (VH of C1.2G); also called antibody 802
B13: C1.2G-77 (antibody, human IgG4, V domains shown)
VH: B1 VH
VL: B1 VL with Q89E, S91G, Y92W, S93N, Q96L, K97T
notes: HCDR3 wt (VH of C1.2G); also called antibody 77
B14: C1.2G-97 (antibody, human IgG4, V domains shown)
VH: B1 VH
VL: B1 VL with Y92F, S93M, Q96L, K97Y
notes: HCDR3 wt (VH of C1.2G); also called antibody 97
B15: C1.2G-56 (antibody, human IgG4, V domains shown)
VH: B1 VH
VL: B1 VL with S93M, Q96I
notes: HCDR3 wt (VH of C1.2G); also called antibody 56
B16: C1.2G-95 (antibody, human IgG4, V domains shown)
VH: B1 VH
VL: B1 VL with Y92W, S93E, Q96L, K97V
notes: HCDR3 wt (VH of C1.2G); also called antibody 95
B17: C1.2G-63 (antibody, human IgG4, V domains shown)
VH: B1 VH
VL: B1 VL with Q89A, Q90N, Y92W, S93G, Q96L, K97T
notes: HCDR3 wt (VH of C1.2G); also called antibody 63
B18: C1.2G-83 (antibody, human IgG4, V domains shown)
VH: B1 VH
VL: B1 VL with Y92W, S93M, P95A, Q96L, K97F
notes: HCDR3 wt (VH of C1.2G); also called antibody 83
B19: C1.2G-79 (antibody, human IgG4, V domains shown)
VH: B1 VH
VL: B1 VL with Q90V, Y92W, S93E, Q96L, K97T
notes: HCDR3 wt (VH of C1.2G); also called antibody 79

The first assay addresses T1, human G-CSFR expressed on cells. The assay can be described thus: cell-based or functional assay.
Take B1: the “IC50 (nM), inhibition of G-CSF-mediated proliferation of BaF3 cells” value (“IC50 (nM), inhibition” for short) turned out to be 0.39 nM.

In the case of B2, the “IC50 (nM), inhibition” value came out at 0.34 nM.

As to B3, the “IC50 (nM), inhibition” value came to 0.34 nM.

On to B4, for which the “IC50 (nM), inhibition” value is 0.88 nM.

As to B5, the “IC50 (nM), inhibition” value amounted to 0.49 nM.

In the case of B6, the “IC50 (nM), inhibition” value stood at 0.41 nM.

On to B7, for which the “IC50 (nM), inhibition” value was 0.18 nM.

As to B8, the “IC50 (nM), inhibition” value turned out to be 0.26 nM.

With B9, the “IC50 (nM), inhibition” value worked out at 0.28 nM.

Consider B10, for which the “IC50 (nM), inhibition” value came to 0.5 nM.

On to B11, for which the “IC50 (nM), inhibition” value is 0.29 nM.

In the case of B12, the “IC50 (nM), inhibition” value amounted to 0.26 nM.

In the case of B13, the “IC50 (nM), inhibition” value worked out at 0.23 nM.

As for B14, the “IC50 (nM), inhibition” value worked out at 0.21 nM.

Turning to B15, the “IC50 (nM), inhibition” value was 0.22 nM.

On to B16, for which the “IC50 (nM), inhibition” value was found to be 0.26 nM.

With B17, the “IC50 (nM), inhibition” value came to 0.26 nM.

On to B18, for which the “IC50 (nM), inhibition” value amounted to 0.21 nM.

Take B19: the “IC50 (nM), inhibition” value worked out at 0.31 nM.

A further assay has as its target T2, soluble hG-CSFR: amino acids 25-335 of …. The assay can be described thus: SPR (Biacore), mAb captured by anti-human IgG, soluble hG-CSFR injected. The procedure:
Soluble hG-CSFR was injected for 5 minutes and dissociation was monitored for 30 minutes. Responses from a reference flow cell (in which mAb was not captured, but otherwise treated identically), were subtracted. The responses from a blank injection were then subtracted from the resultant sensorgrams.
The final corrected responses were fitted using non-linear regression to a model describing 1:1 kinetics, including a term for mass transport limitation. The Rmax value was fitted locally, to account for slight deviations in the level of mAb captured. Association rate (ka), dissociation rate (kd) and equilibrium dissociation constant (KD) were determined.
The term Kd denotes the concentration at which binding is half-saturated. Low readings indicate higher affinity, high ones lower affinity. As to B1, the Kd came out at 0.0733 nM.

Molecule B2 registered a Kd of 0.182 nM.

Take B3: the affinity, expressed as Kd, was 0.144 nM.

The molecule B4 returned a Kd of 0.0446 nM.

As for B5, the Kd stood at 0.17 nM.

B6 showed a Kd of 0.181 nM.

Turning to B7, the Kd is 0.167 nM.

With B8, binding was put at a Kd of 0.0682 nM.

Molecule B9 had a Kd of 0.0911 nM.

Consider B10, for which the Kd was 0.11 nM.

For B11, the affinity, expressed as Kd, was 0.134 nM.

In turn, B12 registered a Kd of 0.111 nM.

On to B13, for which the Kd was 0.107 nM.

Regarding B14, binding was characterised by a dissociation constant (Kd) of 0.0906 nM.

Regarding B15, the Kd stood at 0.0993 nM.

On to B16, for which binding was put at a Kd of 0.0578 nM. This Kd is about 1.7-fold lower than that of the molecule before.

Take B17: binding was put at a Kd of 0.161 nM.

B18 yielded a Kd of 0.066 nM.

Molecule B19 had a dissociation constant (Kd) of 0.0613 nM.
